Results: PMC5494602

Biological target: Flag-TRAF3 (TNF receptor-associated factor 3, full length) (human (by the printed RefSeq NM_145725)) (UniProt Q13114)
Assay: co-IP

Sequence of UniProt Q13114 (Q13114 whole entry): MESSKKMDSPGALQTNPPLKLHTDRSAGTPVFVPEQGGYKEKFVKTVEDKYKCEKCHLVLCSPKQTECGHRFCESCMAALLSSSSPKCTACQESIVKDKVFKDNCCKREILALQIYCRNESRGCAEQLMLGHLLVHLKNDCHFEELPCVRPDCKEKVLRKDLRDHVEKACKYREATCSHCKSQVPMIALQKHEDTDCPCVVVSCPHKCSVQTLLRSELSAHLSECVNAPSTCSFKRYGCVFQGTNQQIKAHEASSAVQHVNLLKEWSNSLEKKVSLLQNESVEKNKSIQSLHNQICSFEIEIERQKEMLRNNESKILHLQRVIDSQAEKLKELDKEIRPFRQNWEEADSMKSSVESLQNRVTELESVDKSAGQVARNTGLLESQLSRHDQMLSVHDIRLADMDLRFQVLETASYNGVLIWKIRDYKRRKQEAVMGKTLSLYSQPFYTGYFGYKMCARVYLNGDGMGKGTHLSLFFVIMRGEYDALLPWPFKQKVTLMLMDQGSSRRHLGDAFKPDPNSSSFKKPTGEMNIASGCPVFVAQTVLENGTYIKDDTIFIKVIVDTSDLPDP

Substance	fold decrease of the MAVS-TRAF3 co-precipitate [fold]
HA-NS1 (wild-type NS1 of H5N1/HM) (natural protein)	8.5
HA-NS1/126-225 (C-terminal effector domain fragment of H5N1/HM NS1) (domain or fragment)	4.6
